B1: BaSO4-adsorbing protein 1 (BSAP1) from Ornithodoros savignyi (natural protein)
chain: MDSEFPCPRKQQPAGNSECSYYCEMNGQWKLGKFQNGARCDYNAVKDGVCNEGLCYASGDSASNTQNQGGSRRQENEDQGDDEWDRK

Legend:
[1] = target: factor V (FV) (human (endogenous in human plasma))
[2] = target: mannan binding lectin-associated serine proteases (MASPs) (human (endogenous in human serum))
[3] = target: mannan-binding lectin (MBL) (human (endogenous in human serum)) (UniProt P11226)
[4] = target: mannan-binding lectin (MBL) (human (endogenous in human serum)) (UniProt P11226); remark: listed apart in the source

Sequence of UniProt P11226 (P11226 21-248): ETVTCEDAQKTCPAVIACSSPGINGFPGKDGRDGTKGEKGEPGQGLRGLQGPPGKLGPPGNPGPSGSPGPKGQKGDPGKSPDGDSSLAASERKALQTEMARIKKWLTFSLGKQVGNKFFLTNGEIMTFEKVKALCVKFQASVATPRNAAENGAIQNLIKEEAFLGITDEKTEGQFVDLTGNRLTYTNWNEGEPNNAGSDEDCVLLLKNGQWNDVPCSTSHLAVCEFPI

| Molecule | decrease of prothrombinase activity in the FV(a) inhibition assay (1/1000 diluted human plasma, 20 pM FXa, 100 nM peptide) [1] [% decrease] | EC50 of inhibition of lectin pathway activation in human serum (mannan-coated wells, ELISA, C4b deposition) [2] [µM] | EC50 of inhibition of lectin pathway activation in human serum (mannan-coated wells, ELISA, C4b deposition) [3] [µM] | EC50 of inhibition of MBL deposition on mannan-coated wells from human serum (ELISA, anti-MBL antibody) [4] [µM] |
| --- | --- | --- | --- | --- |
| D70-L104 Salp14 (from UniProt Q95WY7 91-125) (peptide) | 40 | 17 | – | – |
| tick salivary lectin pathway inhibitor (TSLPI) from Ixodes scapularis (natural protein) | – | – | 25 | 90 |
| B1 | – | – | 8 | 26 |

From article PMC8294578
